Reference: patent publication US20250043302A1, “MUTATED HYDROXYPHENYLPYRUVATE DIOXYGENASE POLYPEPTIDE, AND CODING GENE AND USE THEREOF” (BEIJING DABEINONG BIOTECHNOLOGY CO., LTD., priority 2021, published 2025)

Key:
[1] = system: Arabidopsis thaliana T1 plants; test: Topramezone tolerance of transgenic Arabidopsis thaliana T1 plants (spray, bleached leaf area grade, damage score); type: in vivo; conditions: for Classification and statistics of the grade of pesticide damage: Grade 0 / Classification and statistics of the grade of pesticide damage: Grade 1 / Classification and statistics of the grade of pesticide damage: Grade 2 / Classification and statistics of the grade of pesticide damage: Grade 3: number of plants; for Grade 0 (classification and statistics of the grade of pesticide damage; number of plants) / Grade 1 (classification and statistics of the grade of pesticide damage; number of plants) / Grade 2 (classification and statistics of the grade of pesticide damage; number of plants) / Grade 3 (classification and statistics of the grade of pesticide damage; number of plants): 16 plants
Excerpt: T1 transformants were initially selected from the untransformed seeds using a glufosinate selection scheme. The Arabidopsis thaliana T1 plants (AsHPPD-02) into which the AsHPPD-02 nucleotide sequence was introduced, the Arabidopsis thaliana T1 plants (AsHPPDm-F372A-02) into which the AsHPPDm-F372A-02 nucleotide sequence was introduced, the Arabidopsis thaliana T1 plants (AsHPPDm-F383W-02) into which the AsHPPDm-F383W-02 nucleotide sequence was introduced, the Arabidopsis thaliana T1 plants (AsHPPDm-F372A-F383W-02) into which the AsHPPDm-F372A-F383W-02 nucleotide sequence was introduced, the Arabidopsis thaliana T1 plants (DBN11726N) into which the control recombinant expression vector DBN11726N was introduced, and the wild-type Arabidopsis thaliana plants (CK) (18 days after sowing) were sprayed respectively with topramezone at three concentrations (100 g ai/ha (four-fold field concentration, 4×), 200 g ai/ha (eight-fold field concentration, 8×), and 0 g ai/ha (water, 0×)), isoxaflutole at three concentrations (140 g ai/ha (two-fold field concentration, 2×), 280 g ai/ha (four-fold field concentration, 4×), and 0 g ai/ha (water, 0×)), and mesotrione at three concentrations (210 g ai/ha (two-fold field concentration, […]), 420 g ai/ha (four-fold field concentration, 4×), and 0 g ai/ha (water, 0×)), to determine the tolerance of Arabidopsis thaliana to the herbicides. The degree of damage caused by the herbicide was measured for each plant according to the proportion of bleached leaf area (the proportion of bleached leaf area=bleached leaf area/total leaf area×100%) 7 days after spraying (7 DAT): the case where there is basically no bleached phenotype is defined as grade 0, the case where the proportion of bleached leaf area is less than 50% is defined as grade 1, the case where the proportion of bleached leaf area is more than 50% is defined as grade 2, and the case where the proportion of bleached leaf area is 100% grade is defined as grade 3.
According to the method as described above in point 6 of Example 1, the aforementioned Arabidopsis thaliana T1 plants and wild-type Arabidopsis thaliana plants (CK) (18 days after sowing) were sprayed respectively with topramezone at three concentrations (25 g ai/ha (one-fold field concentration, 1×). 100 g ai/ha (four-fold field concentration, 4×), and 0 g ai/ha (water, 0×)), isoxaflutole at three concentrations (35 g ai/ha (half-fold field concentration, 0.5×). 70 g ai/ha (one-fold field concentration, 1×), and 0 g ai/ha (water, 0×)), and mesotrione at three concentrations (52.5 g ai/ha (half-fold field concentration, 0.5×), 105 g ai/ha (one-fold field concentration, 1×), and 0 g ai/ha (water, 0×)) to detect the tolerance of Arabidopsis thaliana to the herbicides.
According to the method as described above in point 6 of Example 1, the aforementioned Arabidopsis thaliana T1 plants and wild-type Arabidopsis thaliana plants (CK) (18 days after sowing) were sprayed with topramezone at three different concentrations (i.e., 100 g ai/ha (four-fold field concentration, 4×), 200 g ai/ha (eight-fold field concentration, 8×) and 0 g ai/ha (water, 0×)), isoxaflutole at three different concentrations (i.e., 140 g ai/ha (two-fold field concentration, 2×), 280 g ai/ha (four-fold field concentration, 4×) and 0 g ai/ha (water, 0×)), and mesotrione at three different concentrations (i.e., 210 g ai/ha (two-fold field concentration, 2×), 420 g ai/ha (four-fold field concentration, 4×) and 0 g ai/ha (water, 0×)) respectively to detect the herbicide tolerance of Arabidopsis thaliana. […]

[2] = system: Arabidopsis thaliana T1 plants; test: Isoxaflutole tolerance of transgenic Arabidopsis thaliana T1 plants (spray, bleached leaf area grade, damage score); type: in vivo;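 on Scores: Weighted damage index from 0 to 100 where higher means more damage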
How it was run: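 T1 transformants selected by glufosinate; 18-day-old plants, with empty-vector and wild-type controls, sprayed with topramezone (25–200 g ai/ha), isoxaflutole (35–280 g ai/ha) or mesotrione (52.5–420 g ai/ha), water as 0×. Bleached leaf area fraction scored at 7 DAT as grades 0–3.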

[3] = topramezone 100 g ai/ha (4×), 7 DAT, Table 1
[4] = topramezone 200 g ai/ha (8×), 7 DAT, Table 1
[5] = topramezone 100 g ai/ha (4x field concentration), Arabidopsis thaliana T1 plants
[6] = topramezone 200 g ai/ha (8x field concentration), Arabidopsis thaliana T1 plants
[7] = isoxaflutole 140 g ai/ha (2x field concentration), Arabidopsis thaliana T1 plants
[8] = isoxaflutole 140 g ai/ha (2x field concentration), Arabidopsis thaliana T1 plants, 16 plants

B1: AsHPPDm-F383W-02: nucleotide sequence encoding Avena sativa HPPD with F383W; vector DBN11729 (nucleic acid)
DNA: ATGCCACCTACTCCAGCTACAGCTACTGGTGCTGCTGCTGCTGCCGTTACTCCTGAGCACGCTGCCAGGTCATTCCCCAGGGTGGTTCGCGTGAACCCCAGATCTGATAGGTTCCCAGTTCTGAGCTTCCACCATGTTGAGCTGTGGTGCGCTGATGCTGCTTCTGCTGCTGGCAGGTTCTCTTTCGCTCTTGGTGCTCCACTCGCTGCTAGATCTGATCTGTCTACAGGAAATAGCGCTCATGCCTCACTCCTGCTTCGCTCAGGTGCTTTGGCCTTCCTCTTCACCGCTCCATATGCTCCCCCACCTCAGGAGGCTGCTACTGCTGCTGCTACAGCCTCCATTCCAAGCTTCTCAGCTGATGCCGCTAGAACCTTCGCTGCTGCTCATGGACTTGCCGTGAGGTCTGTTGGTGTTCGCGTGGCTGATGCTGCTGAGGCTTTCAGAGTTTCCGTTGCCGGCGGAGCTAGGCCAGCTTTCGCTCCTGCTGATTTGGGACATGGTTTCGGCCTGGCTGAGGTTGAGCTTTACGGTGACGTGGTTCTCCGCTTCGTGTCTTACCCAGATGAGACTGACCTGCCTTTCCTTCCCGGCTTCGAGAGAGTTTCCTCTCCTGGTGCCGTGGATTACGGCCTGACAAGGTTCGACCACGTGGTTGGAAACGTTCCCGAGATGGCTCCAGTGATCGATTACATGAAGGGCTTCCTTGGATTCCATGAGTTCGCCGAGTTCACTGCTGAGGACGTGGGAACCACTGAGTCCGGTTTGAACTCTGTGGTTCTCGCCAACAATTCTGAGGCTGTTTTGCTCCCTCTGAATGAGCCTGTGCATGGAACCAAGAGGAGAAGCCAGATTCAAACTTACCTGGAGTACCACGGTGGCCCTGGAGTTCAGCATATCGCCCTTGCTTCTAATGATGTGTTGCGCACACTCAGAGAGATGCGCGCCAGAACCCCCATGGGAGGTTTCGAGTTCATGGCCCCACCACAGGCTAAGTACTACGAGGGCGTTAGAAGGATTGCTGGAGACGTGTTGAGCGAGGAGCAGATCAAGGAGTGCCAAGAGCTGGGTGTTCTTGTGGATAGGGATGACCAGGGCGTTCTGCTTCAAATTTTCACTAAGCCAGTGGGCGACCGCCCTACATTCTGGCTTGAGATGATTCAAAGAATCGGCTGCATGGAGAAGGATGAGGTTGGACAGGAGTACCAAAAGGGCGGATGCGGTGGCTTCGGAAAGGGTAACTTCAGCGAGTTGTTCAAGTCAATCGAGGACTACGAGAAGAGCCTCGAGGTGAAGCAGTCAGTGGTTGCCCAAAAGTCCTGA
modifications: AsHPPDm-F383W-02 Nucleotide Sequence
notes: vector DBN11729
Classification and statistics of the grade of pesticide damage: Grade 0 [1, 3]: 16
Classification and statistics of the grade of pesticide damage: Grade 1 [1, 3]: 0
Classification and statistics of the grade of pesticide damage: Grade 2 [1, 3]: 0
Classification and statistics of the grade of pesticide damage: Grade 3 [1, 3]: 0
Classification and statistics of the grade of pesticide damage: Grade 0 [1, 4]: 16
Classification and statistics of the grade of pesticide damage: Grade 1 [1, 4]: 0
Classification and statistics of the grade of pesticide damage: Grade 2 [1, 4]: 0
Classification and statistics of the grade of pesticide damage: Grade 3 [1, 4]: 0
Scores ([1]; pesticide damage score 0-100, topramezone 100 g ai/ha (4×), 7 DAT, Table 1): 0
Scores ([1]; pesticide damage score 0-100, topramezone 200 g ai/ha (8×), 7 DAT, Table 1): 0
Resistance evaluation [1, 5]: Highly resistant
Scores [1, 5]: 0
Grade 0 (classification and statistics of the grade of pesticide damage; number of plants) [1, 5]: 16
Grade 1 (classification and statistics of the grade of pesticide damage; number of plants) [1, 5]: 0
Grade 2 (classification and statistics of the grade of pesticide damage; number of plants) [1, 5]: 0
Grade 3 (classification and statistics of the grade of pesticide damage; number of plants) [1, 5]: 0
Resistance evaluation [1, 3]: highly resistant (highly resistant plants (scores 0-15))
Resistance evaluation [1, 6]: Highly resistant
Scores [1, 6]: 0
Grade 0 (classification and statistics of the grade of pesticide damage; number of plants) [1, 6]: 16
Grade 1 (classification and statistics of the grade of pesticide damage; number of plants) [1, 6]: 0
Grade 2 (classification and statistics of the grade of pesticide damage; number of plants) [1, 6]: 0
Grade 3 (classification and statistics of the grade of pesticide damage; number of plants) [1, 6]: 0
Resistance evaluation [1, 4]: highly resistant (highly resistant plants (scores 0-15))
tolerance to topramezone (resistance class) ([1]; topramezone at four-fold or eight-fold field concentration): highly-resistant
tolerance to isoxaflutole (in words) ([2]; in vivo): different degrees of tolerance
Resistance evaluation [2, 7]: Moderately
Scores [2, 7]: 21
Grade 0 (classification and statistics of the grade of pesticide damage; number of plants) [2, 8]: 6
Grade 1 (classification and statistics of the grade of pesticide damage; number of plants) [2, 8]: 10
Grade 2 (classification and statistics of the grade of pesticide damage; number of plants) [2, 8]: 0
Grade 3 (classification and statistics of the grade of pesticide damage; number of plants) [2, 8]: 0
Resistance evaluation ([2]; isoxaflutole 140 g ai/ha (2×), 7 DAT, Table 2): moderately
